Measured values from patent US8410115B2, “Methods of treating inflammatory and autoimmune diseases with alpha-4 inhibitory compounds” (Elan Pharmaceuticals, Inc., priority 2006, dated 2013).

Columns and labels:
MS patients [1] = conditions: 2-year Phase 3 MS trials; cited from earlier work
[2] = biological target: serotonin 5HT2(A) receptor (Homo sapiens, UniProt P28223); experiment: 5HT2(A) receptor antagonism in vitro
[3] = system: relapsing remitting MS patients; experiment: Phase 3 monotherapy study: natalizumab versus placebo for 120 weeks; format: in vivo, human
Procedure: (§1) As described in more detail in Example 1, two Phase 3 studies were conducted to study the effect of two years of treatment with natalizumab. One of the studies used natalizumab alone (the monotherapy study) and the other used natalizumab in combination with AVONEX® (the add-on therapy study). Both these Phase 3 studies were designed with two sets of primary and secondary endpoints. The primary and secondary endpoints were selected to measure the effects of natalizumab on the inflammatory aspects of the disease after a mean of one year of follow-up in each study (900 patient-years of observation in the monotherapy study; 1,200 patient-years in the add-on therapy study).
(§2) The primary endpoint of these studies was the annualized rate of clinical relapses. Two of the secondary endpoints were two supporting MRI measures of inflammatory disease activity, namely, the mean number of new or newly enlarging T2-hyperintense lesions (measuring lesion accumulation over time) and the mean number of Gd-enhancing lesions (measuring acute disease activity), as ranked in order of importance. The proportion of patients remaining relapse-free provided a third secondary endpoint.
(§3) Another series of endpoints was assessed at the conclusion of each study following two years of natalizumab treatment. The endpoints for this final analysis were selected to determine natalizumab's effects on measures associated with MS disease progression. The primary endpoint at two years was the time until onset of sustained progression of disability, as measured by changes in EDSS scores. Similar to the one-year analysis, the secondary endpoints were additional MRI and clinical measures that would support the primary analysis. The secondary endpoints at two years, ranked in order of importance, were the rate of MS relapses (to confirm one-year relapse observations), the mean volume of T2-hyperintense lesions (a measure of overall MS disease burden), the mean number of T1-hypointense lesions (a measure of axonal loss), and progression of disability as determined by changes in the MSFC (to confirm and expand upon disability effects as measured by the EDSS).
(§4) Given two primary endpoints at two different time points (annualized relapse rate at one year, time to disability progression at two years), the Hochberg procedure for multiple comparisons (Hochberg, Biometrika 75:800-802 (1988)) was used to evaluate the primary endpoint. Each set of secondary endpoints was prioritized in order of importance as listed above. A closed testing procedure was used for each set, such that if statistical significance was not achieved for an endpoint within a set, all endpoints(s) of a lower rank in that set were not considered statistically significant.
Both Phase 3 studies had similar designs. In the monotherapy study, 942 untreated relapsing remitting MS patients were randomized to receive natalizumab or placebo for 120 weeks (30 infusions) using a 2:1 allocation. In the add-on study, 1,171 patients who had been receiving weekly intramuscular injections of 30 μg AVONEX®, but who had relapsed despite this treatment, were randomized using a 1:1 allocation to add natalizumab or placebo to their regimen, also for 120 weeks.
Efficacy parameters included EDSS scores, MS relapses, brain MRI scans, MSFC scores, visual function tests, and quality of life. EDSS and MSFC were measured every 12 weeks, brain MRI scans and quality of life questionnaires at baseline and every year, and MS relapses on an ongoing basis.
The patient population in the two Phase 3 studies were relapsing MS patients according to the criteria of the International Panel on the Diagnosis of Multiple Sclerosis (McDonald et al., Ann. Neurol. 50:121-127 (2001)). It encompassed a broad range of ages and disease severity, and represented the current relapsing MS population with active disease, consistent with the approved indication. Patients with primary- or secondary-progressive MS were excluded. […]

[4] = Natalizumab in combination with glatiramer acetate over six months; format: in vivo, human; conditions: 20 mg daily glatiramer acetate
Procedure: The safety of natalizumab in combination with glatiramer acetate was evaluated by administering natalizumab over six months to patients who continued to receive 20 mg of daily glatiramer acetate. […] However, this study was of insufficient size or duration to establish the long-term safety or efficacy in this population.

[5] = system: rheumatoid arthritis patients; experiment: Deaths in rheumatoid arthritis trials of natalizumab; format: in vivo, human; conditions: natalizumab-treated rheumatoid arthritis patients
Description: Three deaths occurred in the rheumatoid arthritis trials, two in natalizumab-treated patients and one in a patient treated with a placebo. The natalizumab-treated patients died of hemoptysis with respiratory failure and end-stage rheumatoid pulmonary disease. The placebo-treated patient died of circulatory and respiratory insufficiency.

MS patients [6] = experiment: Safety of natalizumab in MS clinical trials (adverse events, deaths); format: in vivo, human
Description: Eighteen treatment-emergent deaths occurred in the entire natalizumab program. The adverse events encountered in the trials, both common and serious, were similar in natalizumab-treated patients and controls. Adverse events that led to discontinuation of natalizumab occurred in 5.8% of natalizumab-treated MS patients and in 4.8% of placebo-treated MS patients, with urticaria being the most common cause of discontinuation in the natalizumab-treated patients (1.2%).
Of the eighteen deaths that occurred during the clinical trials, five occurred in the placebo-controlled MS trials (including two in patients who had received natalizumab and three who had received placebo). The patients who received natalizumab died of alcohol intoxication and metastatic malignant melanoma. The patients who received placebo died of cardiac arrest, respiratory arrest, and pleural carcinomatosis with seizures. Four deaths occurred in the open-label MS trials, due to respiratory distress, PML, suicide, and seizure due to MS.
At least one serious adverse event was encountered by 251 of the 1,617 natalizumab-treated MS patients (15.5%) and by 214 of the 1,135 placebo-treated patients (18.9%) in the placebo-controlled trial. The most common serious adverse events, classified by organ systems, were nervous system disorders (5.9% natalizumab, 10.2% placebo). […] The second most common serious adverse events were infections and infestations (2.4% natalizumab, 2.2% placebo), with appendicitis and urinary tract infection (<1% in both groups) as the most common.

[7] = system: relapsing MS patients relapsing despite AVONEX; experiment: Phase 3 add-on therapy study: natalizumab added to AVONEX versus AVONEX plus placebo for 120 weeks; format: in vivo, human
Procedure: as §1, §2, §3, §4
The add-on therapy study was designed to evaluate the efficacy of natalizumab against active control for patients breaking through AVONEX® monotherapy. The choice of β-interferon was supported by available data on the proposed mechanisms of action of the available drugs. As discussed above, natalizumab has a well-defined mechanism of action, specifically targeting cellular adhesion and trans-endothelial migration via α4-integrins, as do the class of alpha-4 inhibitor compounds. Although the exact mechanism by which interferon-β exerts efficacy in MS is not known, interferon-β induces a large number of cellular processes involved in cytokine secretion and cellular phenotype changes. […]

[8] = Population pharmacokinetic analysis of natalizumab with concurrent AVONEX; format: in vivo, human
Procedure: In a placebo-controlled MS study, the administration of AVONEX® appeared to be associated with an increase in the serum concentrations of natalizumab in a small cohort on whom intensive pharmacokinetic sampling was performed. However, based upon a comparison of the mean post-hoc parameter estimates from the population pharmacokinetic analysis, steady-state clearance and half-life values differed between patients concurrently taking AVONEX® and natalizumab monotherapy, but only by approximately 5%, and were not considered clinically significant. […] It is notable that the two reports of PML in the MS database occurred in patients receiving concomitant AVONEX®. Thus, the risk of PML with natalizumab treatment may be increased by concomitant treatment with interferon β, though this could have occurred in two patients on combination therapy due to chance alone (p=0.23).

JCV [9] = experiment: Safety evaluation for PML / JCV in natalizumab-exposed clinical trial patients
Description: Clinical trial patients exposed to natalizumab were systematically assessed for evidence of incipient PML or any other opportunistic infection.
Criteria were established prospectively for the neuroradiologic evidence and laboratory assays for the diagnosis of PML. A diagnosis of “confirmed PML” was defined by presence of progressive clinical disease, MRI signs typical of PML, detection of JCV DNA in CSF, or pathologic confirmation. Sufficient evidence to exclude PML was defined as lack of progressive neurological disease, MRI lesions not typical of PML or stable over time, or no detectable JCV DNA in the CSF if the MRI was suspicious. A case was deemed “indeterminate” if there was clinical or MRI suspicion of PML and follow-up clinical, MRI, or CSF data could not be obtained.
Investigators were requested to perform the assessment procedure, including medical history, neurological examination, brain MRI, and CSF collection. Blood samples were also collected for PCR analysis of JCV DNA as an exploratory adjunct. MRI scans were assessed by Central Reader Centers with expertise in neurological disorders, including the two Central Reader Centers for the original Phase 3 MS studies. A consensus guideline was developed prospectively to standardize criteria to help distinguish MS white matter abnormalities from those of PML.

Crohn's Disease patients = experiment: Deaths in Crohn's Disease trials of natalizumab; format: in vivo, human; conditions: natalizumab-treated Crohn's Disease patients
Description: The exposure to natalizumab was approximately three-fold greater in these trials than exposure to placebo. The causes of death were acute myocardial infarction, acute renal failure, carbon dioxide asphyxiation, PML, pneumocystis carinii pneumonia, and bronchopulmonary aspergillosis.

JCV [10] = conditions: in vitro; cited from earlier work
JCV [11] = conditions: one MS patient with PML after natalizumab plus AVONEX; cited from earlier work
[12] = mean post-hoc parameter estimates, population pharmacokinetic analysis

Sequence of serotonin 5HT2(A) receptor (P28223 whole entry): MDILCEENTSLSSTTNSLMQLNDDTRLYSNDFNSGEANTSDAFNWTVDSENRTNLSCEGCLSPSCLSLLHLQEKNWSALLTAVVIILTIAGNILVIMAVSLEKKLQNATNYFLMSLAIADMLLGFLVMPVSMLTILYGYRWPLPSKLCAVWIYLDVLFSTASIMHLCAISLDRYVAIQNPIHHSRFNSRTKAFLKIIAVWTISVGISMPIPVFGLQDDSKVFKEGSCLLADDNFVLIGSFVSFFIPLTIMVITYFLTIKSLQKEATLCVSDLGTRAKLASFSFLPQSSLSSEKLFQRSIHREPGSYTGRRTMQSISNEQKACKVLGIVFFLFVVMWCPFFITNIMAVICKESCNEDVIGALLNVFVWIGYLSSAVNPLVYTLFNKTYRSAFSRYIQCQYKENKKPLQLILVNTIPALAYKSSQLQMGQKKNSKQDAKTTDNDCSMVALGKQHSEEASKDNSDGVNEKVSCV

glatiramer acetate
Subjects who experienced at least one relapse despite treatment (MS patients [1]): 66%

O=C1Cc2cc(CCN3CCN(c4nsc5ccccc45)CC3)c(Cl)cc2N1 [zisprasidone]
Potency as 5HT2(A) receptor antagonist relative to chlorpromazine and clozapine [2]: significantly more potent

natalizumab: humanized antibody against VLA-4; humanized IgG4κ monoclonal antibody directed against the α-4-subunit of alpha-4 integrins
Quality of life, physical and mental components of the SF-36 ([3]; monotherapy versus placebo): improved | Annualized relapse rate ([3]; monotherapy, two years): 0.235 | Hazard ratio (95% confidence interval) for sustained progression of disability ([3]; natalizumab versus placebo, two years): 0.58 (0.43, 0.77) | Percentage of patients with sustained progression of disability ([3]; two years, measured by EDSS, monotherapy): 17% | Patients remaining relapse-free ([3]; two years, monotherapy): 67% | Risk reduction of disability progression ([3]; versus placebo, EDSS, two years): 42% | Relative reduction in annualized relapse rate ([3]; versus placebo, two years): 68% | Interaction between glatiramer acetate and natalizumab pharmacokinetics [4]: no interactions | Interaction between glatiramer acetate and natalizumab α4-integrin receptor saturation [4]: no interactions | Deaths [5]: two | Tolerability (MS patients [6]; 3,919 subjects in MS, Crohn's Disease and rheumatoid arthritis trials): generally well tolerated | Occurrence of malignancy (MS patients [6]; during natalizumab treatment, balanced with control groups): uncommon | Incidence of hypersensitivity reactions (MS patients [6]; human, in vivo): approximately 4% | Incidence of serious systemic hypersensitivity reactions (MS patients [6]; human, in vivo): less than 1% | Adverse events that led to discontinuation (MS patients [6]; natalizumab-treated MS patients): 5.8% | Discontinuation due to urticaria (MS patients [6]; natalizumab-treated patients, most common cause of discontinuation): 1.2% | Deaths (MS patients [6]; open-label MS trials): Four | Serious adverse events: MS relapse (MS patients [6]; placebo-controlled MS trial): 4.7% | Serious adverse events: appendicitis and urinary tract infection (MS patients [6]; placebo-controlled MS trial): < 1% | Serious adverse events: infections and infestations (MS patients [6]; placebo-controlled MS trial): 2.4% | Serious adverse events: nervous system disorders (MS patients [6]; placebo-controlled MS trial): 5.9% | Patients with at least one serious adverse event (MS patients [6]; placebo-controlled MS trial, 251 of 1,617 patients): 15.5% | Deaths (MS patients [6]; placebo-controlled MS trials, patients who had received natalizumab): two | Tolerability in combination with AVONEX ([7]; 589 patients, up to 120 weeks): well tolerated | Quality of life, physical components of the SF-36 ([7]; compared to AVONEX therapy alone, trend on the mental component): improved | Patients relapse-free ([7]; two years, add-on to AVONEX): 54% | Risk reduction of disability progression ([7]; versus AVONEX alone, EDSS, two years): 24% | Relative reduction in annualized relapse rate ([7]; versus AVONEX, two years): 55% | Difference in half-life, concurrent AVONEX versus natalizumab monotherapy [8, 12]: approximately 5% | Difference in steady-state clearance, concurrent AVONEX versus natalizumab monotherapy [8, 12]: approximately 5% | Serum concentrations of natalizumab on administration of AVONEX ([8]; small cohort with intensive pharmacokinetic sampling, placebo-controlled MS study): increase | Incidence of PML (JCV [9]; human, in vivo): approximately 1 /1,000 | Incidence of PML, 95% confidence interval (JCV [9]; human, in vivo): 0.2-2.8 /1,000 | JCV in CSF (JCV [9]; human, in vivo): not detected | Confirmed cases of PML (JCV [9]; two MS patients, one Crohn's Disease patient, two fatal): Three | Deaths (Crohn's Disease patients): Six

CN(C)CCCN1c2ccccc2Sc2ccc(Cl)cc21 [chlorpromazine]
Block of JCV cell entry (JCV [10]): block

Nc1ccn(C[C@@H](CO)OCP(=O)(O)O)c(=O)n1 [Cidofovir, cidofovir]
Clinical effect in PML (JCV [11]): without clinical effect
